This passage reports decrease of the proteolytic activity of the protease (110 nM) after preincubation with 1 μM eHAMpin-1 for 30 min, decrease of the proteolytic activity of the protease (100 nM) after preincubation with 1 μM eHAMpin-1 for 30 min and decrease of the proteolytic activity of the protease (96 nM) after preincubation with 1 μM eHAMpin-1 for 30 min results from PMC11417211.

In assay [1] the target is Cathepsin G from human leukocytes (human) (UniProt P08311).
Assay [2] deals with elastase from porcine pancreas (porcine) (UniProt P00772).
The target in assay [3] is α-chymotrypsin from bovine pancreas (bovine).

Chain of UniProt P00772 (P00772 27-266): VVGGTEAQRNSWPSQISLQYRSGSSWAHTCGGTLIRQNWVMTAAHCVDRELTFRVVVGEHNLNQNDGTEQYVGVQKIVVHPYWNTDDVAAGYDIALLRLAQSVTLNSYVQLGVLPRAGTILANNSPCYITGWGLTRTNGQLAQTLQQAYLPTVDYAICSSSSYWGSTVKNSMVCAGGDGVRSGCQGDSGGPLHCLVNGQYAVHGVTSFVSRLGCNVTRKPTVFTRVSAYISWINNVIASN
Chain of UniProt P08311 (P08311 21-244): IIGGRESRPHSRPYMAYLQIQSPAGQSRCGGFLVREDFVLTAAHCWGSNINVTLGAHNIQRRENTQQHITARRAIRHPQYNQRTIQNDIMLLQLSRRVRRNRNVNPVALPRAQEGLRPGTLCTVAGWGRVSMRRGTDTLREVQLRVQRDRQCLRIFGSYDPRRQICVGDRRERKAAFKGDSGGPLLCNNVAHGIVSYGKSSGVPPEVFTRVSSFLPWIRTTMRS

With “E. coli expressed Hyalomma anatolicum serpin-1 (eHAMpin-1) (natural protein)”, in assay [1], the decrease of the proteolytic activity of the protease (110 nM) after preincubation with 1 μM eHAMpin-1 for 30 min at 37 °C; chromogenic substrate was > 90%. In assay [2], the decrease of the proteolytic activity of the protease (100 nM) after preincubation with 1 μM eHAMpin-1 for 30 min at 37 °C; chromogenic substrate was > 45%. Besides, the decrease of the proteolytic activity of the protease (96 nM) after preincubation with 1 μM eHAMpin-1 for 30 min at 37 °C; chromogenic substrate in assay [3] is > 90%.
